Experimental findings from patent US20160168251A1 are described below.

The experiment concerns the target human NPRA on HEK293 cells, without added ligand (human) (UniProt P16066). Kind of experiment: cell-based or functional assay.

Chain of human NPRA on HEK293 cells, without added ligand (human) (P16066 33-1061 limits assumed): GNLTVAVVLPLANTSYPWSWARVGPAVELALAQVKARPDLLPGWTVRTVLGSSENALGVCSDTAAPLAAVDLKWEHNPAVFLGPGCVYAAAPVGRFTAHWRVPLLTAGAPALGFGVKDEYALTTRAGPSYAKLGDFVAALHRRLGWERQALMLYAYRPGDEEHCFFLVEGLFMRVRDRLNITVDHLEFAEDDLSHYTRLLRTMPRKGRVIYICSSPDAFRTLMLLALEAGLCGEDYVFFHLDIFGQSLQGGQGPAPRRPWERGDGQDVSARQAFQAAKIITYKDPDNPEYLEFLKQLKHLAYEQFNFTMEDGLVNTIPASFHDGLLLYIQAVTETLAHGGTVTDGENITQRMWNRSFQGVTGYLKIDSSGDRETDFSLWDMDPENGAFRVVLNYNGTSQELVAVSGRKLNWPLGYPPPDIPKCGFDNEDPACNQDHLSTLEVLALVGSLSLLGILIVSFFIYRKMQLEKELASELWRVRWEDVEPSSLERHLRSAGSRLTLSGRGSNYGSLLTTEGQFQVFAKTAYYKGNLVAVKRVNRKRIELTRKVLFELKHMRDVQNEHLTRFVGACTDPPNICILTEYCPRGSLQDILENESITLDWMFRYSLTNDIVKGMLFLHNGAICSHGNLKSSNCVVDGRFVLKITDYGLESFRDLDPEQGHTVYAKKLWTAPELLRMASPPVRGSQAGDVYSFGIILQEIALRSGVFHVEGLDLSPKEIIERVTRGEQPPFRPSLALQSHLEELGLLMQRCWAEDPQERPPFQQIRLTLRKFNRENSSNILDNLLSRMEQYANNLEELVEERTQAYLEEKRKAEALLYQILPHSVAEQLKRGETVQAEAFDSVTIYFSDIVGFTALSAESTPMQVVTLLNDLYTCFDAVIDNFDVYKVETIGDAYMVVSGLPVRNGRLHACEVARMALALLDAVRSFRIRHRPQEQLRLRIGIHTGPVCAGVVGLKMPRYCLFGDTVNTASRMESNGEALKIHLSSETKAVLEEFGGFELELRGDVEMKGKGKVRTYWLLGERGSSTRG

As to “B-type natriuretic peptide (BNP), free (from UniProt P16860 27-134) (ligand)”, the EC50 of BNP, cGMP production in HEK NPRA cells, in presence of negative control Fab came out at 90 nM.
